# Biological target: T1, ERK3, amino acids 1-316, bait fused to the Gal4 DNA binding domain (Saccharomyces cerevisiae, UniProt P04386 1-147; Q16659 1-316)
# T1 construct: range 1-147;range 1-316; Bait cDNA made by PCR from brain cDNA; also called ERK3 protein kinase
# Test: yeast two-hybrid
# Excerpt: The new construct was selected directly in the yeast J693 for its ability to drive tryptophane synthesis (genotype of this strain: Mat α, ade2, his3, leu2, trp1, URA3::GAL1-lacZ LYS2::GAL1-HIS3 gal4del gal80del cyhR2). In these yeast cells, the bait is produced as a C-terminal fusion protein with the DNA binding domain of the transcription factor Gal4 (amino acids 1 to 147). A total human brain (person) cDNA library cloned into the yeast expression vector pACT2 was purchased from Clontech (human brain […] cDNA, cat. # HL4004AH), transformed into the yeast strain J692 (genotype of this strain: Mat a, ade2, his3, leu2, trp1, URA3::GAL1-lacZ LYS2::GAL1-HIS3 gal4del ga80del cyhR2), and selected for the ability to drive leucine synthesis. In these yeast cells, each cDNA is expressed as a fusion protein with the transcription activation domain of the transcription factor Gal4 (amino acids 768 to 881) and a 9 amino acid hemagglutinin epitope tag. J693 cells (Mat α type) expressing the bait were then mated with J692 cells ([…]) expressing proteins from the brain library. The resulting diploid yeast cells expressing proteins interacting with the bait protein were selected for the ability to synthesize tryptophan, leucine, histidine, and β-galactosidase. […]
binder,measurement,value
"CDK9, amino acids 160-372, prey clone fused to the Gal4 activation domain (other, Saccharomyces cerevisiae;human, UniProt P04386 768-881, looked up, not shown: small tags and cut ends, Clone from the human brain cDNA library; also called PITARLE) ANFNQSGNIADSSLSFTFTNSSNGPNLITTQTNSQALSQPIASSNVHDNFMNNEITASKIDDGNNSKPLSPGWTDQTAYNAFGITTGMFNTTTMDDVYNYLFDDEDTPPNPKKEDGVLKLADFGLARAFSLAKNSQPNRYTNRVVTLWYRPPELLLGERDYGPPIDLWGAGCIMAEMWTRSPIMQGNTEQHQLALISQLCGSITPEVWPNVDNYELYEKLELVKGQKRKVKDRLKAYVRDPYALDLIDKLLVLDPAQRIDSDDALNHDFFWSDPMPSDLKGMLSTHLTSMFEYLAPPRRKGSQITQQSTNQSRNPATTNQTEFERVF",binding result,binds
